# B1: HA-tagged DDX3 (natural protein, UniProt O00571 1-662, looked up)
# chain: MSHVAVENALGLDQQFAGLDLNSSDNQSGGSTASKGRYIPPHLRNREATKGFYDKDSSGWSSSKDKDAYSSFGSRSDSRGKSSFFSDRGSGSRGRFDDRGRSDYDGIGSRGDRSGFGKFERGGNSRWCDKSDEDDWSKPLPPSERLEQELFSGGNTGINFEKYDDIPVEATGNNCPPHIESFSDVEMGEIIMGNIELTRYTRPTPVQKHAIPIIKEKRDLMACAQTGSGKTAAFLLPILSQIYSDGPGEALRAMKENGRYGRRKQYPISLVLAPTRELAVQIYEEARKFSYRSRVRPCVVYGGADIGQQIRDLERGCHLLVATPGRLVDMMERGKIGLDFCKYLVLDEADRMLDMGFEPQIRRIVEQDTMPPKGVRHTMMFSATFPKEIQMLARDFLDEYIFLAVGRVGSTSENITQKVVWVEESDKRSFLLDLLNATGKDSLTLVFVETKKGADSLEDFLYHEGYACTSIHGDRSQRDREEALHQFRSGKSPILVATAVAARGLDISNVKHVINFDLPSDIEEYVHRIGRTGRVGNLGLATSFFNERNINITKDLLDLLVEAKQEVPSWLENMAYEHHYKGSSRGRSKSSRFSGGFGARDYRQSSGASSSSFSSSRASSSRSGGGGHGSSRGFGGGGYGGFYNSDGYGGNYNSQGVDWWGN
# Target: T1, HA-tagged HNF4 (hepatocyte nuclear factor 4) (UniProt P41235 1-474)
# T1 sequence (looked up): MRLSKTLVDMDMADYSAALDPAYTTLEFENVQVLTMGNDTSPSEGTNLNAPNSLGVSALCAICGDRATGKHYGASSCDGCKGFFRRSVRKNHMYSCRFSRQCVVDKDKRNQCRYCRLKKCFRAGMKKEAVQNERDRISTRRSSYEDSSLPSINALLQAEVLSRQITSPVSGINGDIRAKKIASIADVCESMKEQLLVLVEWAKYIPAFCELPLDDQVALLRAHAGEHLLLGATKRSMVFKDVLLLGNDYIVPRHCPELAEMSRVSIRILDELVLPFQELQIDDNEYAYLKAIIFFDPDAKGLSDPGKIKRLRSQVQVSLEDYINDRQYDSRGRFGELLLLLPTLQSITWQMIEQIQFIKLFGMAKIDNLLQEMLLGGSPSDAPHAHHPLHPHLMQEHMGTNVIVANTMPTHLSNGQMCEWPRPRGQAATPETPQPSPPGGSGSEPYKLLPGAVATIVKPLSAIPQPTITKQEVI
# Assay: cell-based or functional assay
binder,measurement,value
B1,"luciferase activity of pGL2/MTP-Luc(-611/+87) in HuH7 cells, HA-HNF4 with increasing HA-DDX3 against HA-HNF4 alone (2.4- to 8.9-fold, DDX3 dose-dependent)",8.9 fold

# From publication PMC5269733, “RNA helicase DDX3 maintains lipid homeostasis through upregulation of the microsomal triglyceride transfer protein by interacting with HNF4 and SHP” (Scientific Reports, 2017)
